Test: soluble on expression in E. coli; label from the status in PepcDB or PDB records

| Sequence | soluble on expression in E. coli |
| --- | --- |
| MSLTSVVFLNPGNSTETFWVSYSQFMQAAARDLGLDLRILYAERDPQNTLQQARELFQGRDKPDYLMLVNEQYVAPQILRLSQGSGIKLFIVNSPLTLDQRELIGQSRQNYSDWIGSMVGDDEEAGYRMLKELLHKLGPVPAGHGIELLAFSGLKVTPAAQLRERGLRRALAEHPQVHLRQLVYGEWNRERAYRQAQQLLKRYPKTQLVWSANDEMALGAMQAARELGRKPGTDLLFSGVNSSPEALQALIDGKLSVLEAGHFTLGGWALVALHDDALGLDARRLGGPDWQLSLFQEGHHHHHH | not soluble |
| MSLTTFIQLHLLTAYPAANLNRDDTGAPKTVVLGGATRLRVSSQSLKRAWRTSALFEQALAGHIGIRSGRIAREAATILIEKGIEEKKAIEWAAKIADYLGKAKNDKKPKDPLTNAETEQLVHISPAEFDAVKALAHQLAEEKRAPKEEDLALLRKDRMAVDIAMFGRMLANKPEFNVEAACQVAHAFGVSETIVEDDFFTAVDDLRQASEDAGAGHLGETGFGSALFYTYICIDKDLLVENLGGDEALANQTLRAFTEAALKVSPTGKQNSFASRAYASWALAEKGTEQPRSLAAAFYEPINGTRQLDVAVQRITTLRENMNTVYEQKTECASFDVMNKQGSMKDVLDFICAEGHHHHHH | soluble |
| MSLTTIKNIESFVYRYPLSKPVITSFGVMNNRPMLILKITDNNGMYGWGEVWCNFPLTGAEHRAKLIDNIFKPLLANFDIITPEKTYEYLVSKTKILSIQSGEPGPIAQCIAGIDIAVHDLIGKVENISLWKKFGGNKNIIPCYASGINPTKPEVTVKDAIKKGYSSFKLKIGFGIKKDLGNIKEIKNILPEKSSLMVDANQAWNLNEAIEACRLLEDLNLCWLEEPIPANSEIKEWIHLKDSTKITLAAGENFNSHREFSSFFQNKVFGYLQPDIAKWGGFTECSKLIKNIIQNKITYCPHYLGGGIGLVASAHLLSASNGKGILEVDINDNPLRSDIVGDIFEKNSGFATLSDIPGLGFEPNLKTISKYLVAHEGHHHHHH | soluble |
| MSLTTPSKKTLLFDLDGTLVDSFPGIRTSFLHTLHEKNWEIPSEERISQVPGPPMEWTFQDLGMTPEQAQDALQTYLEHYGQVGWDLSEAFPGMRDLLIRLKYEGFRLCTATSKGEFFAEKVLRKFEMFDLFEFMGAATDNGNRRSKSAVIKHVLDSVGLDEPNDILMIGDRSHDIEGSSEFGIDCVAVTWGYGSKTEWDAARYTVSTAEELERIIHDWAEGHHHHHH | soluble |
| MSLTTSHFIPFPREMVWDWHTRKGAVARLTPPFIPLNPITQAERLADGTTIFSLPAGLKWVARHDLSGFLNGSRFTDVCLTAPVKALANWRHVHNFVDQDGGTLITDSVSTRLPASTLTGMFAYRQTQLIEDLKFLSRTSTLFDGSPLTVAITGSRGLVGRALTAQLQTGGHEVIQLVRKEPKPGKRFWDPLNPASDLLDGADVLVHLAGEPIFGRFNDSHKEAIRESRVLPTKFLAELVAESTQCTTMISASAVGFYGHDRGDEILTEESESGDDFLAEVCRDWEHATAPASDAGKRVAFIRTGVALSGRGGMLPLLKTLFSTGLGGKFGDGTSWFSWIAIDDLTDIYYRAIVDAQISGPINAVAPNPVSNADMTKILATSMHRPAFIQIPSLGPKILLGSQGAEELALASQRTAPAALENLSHTFRYTDIGAAIAHELGYEQLADFAQQQEIEAERKQERAELKAAKKIAKKAPVLEESPTNLEDPEEVEQSILSSILNFRRKRNDLEHHHHHH | soluble |
| MSLTTSPDARWTRRRTEKQRRLEQVRTLADGVVLPTDKIVAALEALLVSGDRVVLEGNNQKQADFLSRALAKVDPGKVHDLHMIMPSVGRAEHLDLFEQGIARKLDFSFAGTQSLRISQLLEDGLLEIGAIHTYIELYSRLVVDLIPNVVLAAGFMADRAGNIYTGPSTEDTPALIEPAAFSDGIVIVQVNQLVDDVSELPRVDIPASWVDFVVVADKPFYIEPLFTRDPRHIKPVHVLMAMMAIRGIYEKHNVQSLNHGIGFNTAAIELILPTYGESLGLKGKICRNWTLNPHPTLIPAIESGWVESVHCFGTELGMENYIAARPDVFFTGRDGSLRSNRQLCQLAGQYAVDLFIGATLQVDGDGHSSTVTRGRLAGFGGAPNMGHDPRGRRHATPAWLDMRQQNESGPDAYLERGKKLVVQMVETFQEGGKPTFVETLDAVEVAKKSGMPLAPIMIYGDDVTHLLTEEGIAYLYKARSLEERQAMIAAVAGVTVIGLRHNPKDTARMRREGLIALPEDLGIRRTDASREGHHHHHH | not soluble |
| MSLTVNNEISKAFSKHADDYERVAKVQKEIGSRLFERLQYLKIAPRRILDLGCGPGFFSKELALLYPKAQIVGMDLSFAMLEQARKKQGWRRKWPLVSADMQKMPFATGAFDLVFANQVIHWSSSLGMVFRELNRVMNVNGCLMFTTLGPDTFKELQTAWSAANQYAHVNEFVDMHDIGDCLIAEHFMDPVIDMELLSIHYETLPQLLLALKTQGVRNINPKRNHGLTGKSAWKQFEAQYATMRTTTGKYPLTYEVVYGQAWKGAQRKMEQGEGHHHHHH | not soluble |
| MSLTVQDLHFKNKVNFIGGQYVPSNESDTIDILSPSTGKVIGEIPAGCKADAENALEVAQAAQKAWAKLTARTRQNMLRTFANKIRENKHILAPMLVAEQGKLLSVAEMEVDVTATFIDYGCDNALTIEGDILPSDNQDEKIYIHKVPRGVVVGITAWNFPLALAGRKIGPALITGNTMVLKPTQETPLATTELGRIAKEAGLPDGVLNVINGTGSVVGQTLCESPITKMITMTGSTVAGKQIYKTSAEYMTPVMLELGGKAPMVVMDDADLDKAAEDALWGRFANCGQVCTCVERLYVHASVYDEFMAKFLPLVKGLKVGDPMDADSQMGPKCNQREIDNIDHIVHEAIKQGATVATGGKTATVEGFEGGCWYEPTVLVDVKQDNIVVHEETFGPILPIVKVSSMEQAIEFCNDSIYGLSAYVHTQSFANINQAISDLEVGEVYINRGMGEQHQGFHNGWKQSGFGGEDGKFGLEQYLEKKTVYINEAEGHHHHHH | soluble |
| MSLVDFIDDNRGEFGVEPICTVLRSAGLQVALSTYYDAKARVPSARALRDAVLGPALCQLWKDNYCVYGARKLWKTARRDGHDVGRDQVARLMRAAGIEGVRRGKRVRTTKADPAAARHPDLVHRNFAAAAPNQLWATDLTFVPTWAGVAYVCFIIDAHSRMIVGWRVASHMRTSMVLDALEMARWSRGTTLQDLICHSDAGSQFTSIRYGERLAEIGAVPSIGTVGDSFDNALAETVNGYYKAELIYGPARSRPWKTVEDVELATLSWVHWHNTSRLHSYLGDIPPTEFEAAFYDAYRTDQPLIGIQEGHHHHHH | not soluble |
| MSLVENLSLEPQPKRRKIDPEVKESPSRNCSHWFVRNKVCASCNTIVDNYQGRSFDYLYTGIQMSNEALGFTKRLISQTSWLEDKKLHLVLDLDHTLVHTIKVSQLSESEKYITEEVESRKDLRRFNTGFPEESLIKLRSFVHQFLKECNEMFSLYVYTKGGYDYAQLVLEMIDPDKIYFGNRVITRRESPGFKTLDLVLADERGIVVVDDKSSVWPHDKKNLLQIARYKYFGDQSCLLSECKKKIDESDEKGPLNTALRFLMDVHEEFFCDWSRKDLDSVDVRPLLKEISLRWKRKADGVV | soluble |
| MSLVHPAGMAIMISGGIVQKIAPSDDILSEFAPWYPANSVSTDVEVIDIGEMSVVPGFVDSHTHLPWSGDRTNELTMRLRGKTYREIAQSGGGIMKTVSHTRSTPKRNLVASGISRVQECMRNGTTTLEAKSGYGLDLDSEVKLLEAISEIDRSTAIDIRATWLGAHDFPPEMGREDYVEHLISDQLPVISELSLARWVDVFCEQGWFTNEQTEDIVKASKDYGMKSRLHVDEFVDSGGLALAAELGSVSADHVACSNDDSRVSAAESGTVQTFLPGTPYVLGKSLELPIKKCITEDWPFSIATDFNPNCPITSLPLIGSFVTHRLGVDPIASLVAVTRNPATTMFDEEEPRGVISEGSIADMNVLWSSSADSWCQTPGSSPVRDTIKNGIIVNSNKTYEGHHHHHH | soluble |
| MSLVKPKYQRVVLKLSGEALAGEDGFGIKPPVIKEIVQEIKEVHELGIEMAIVVGGGNIWRGQIGAQMGMERAQADYMGMLATVMNALALQDTLENLGVPTRVQTSIEMRQIAEPYIRRRAERHLEKGRVVIFAGGTGNPYFSTDTTAALRAAEVDADVILMAKNNVDGVYSADPRVDETATKFEELTHLDVISKGLQVMDSTASSLSMDNDIPLVVFNLNEAGNIRRAILGENIGTTVRGKEGHHHHHH | soluble |
| MSLVMWLMAHSEKLEDLLEGKPVVIIEDGELAWSKLNNSNMTEFEFFMELRLRGVEQLGQVRLAILETNGQISVYFFEDDKVKPGLLILPSDCTQRYKVVPESADYACIRCSEIIHMNAGEKQLCPRCANPEWTKASRAKRVTEGHHHHHH | soluble |
| MSLVNMEFLKRSFAPLTEKQWQEIDNRAREIFKTQLYGRKFVDVEGPYGWEYAAHPLGEVEVLSDENEVVKWGLRKSLPLIELRATFTLDLWELDNLERGKPNVDLSSLEETVRKVAEFEDEVIFRGCEKSGVKGLLSFEERKIECGSTPKDLLEAIVRALSIFSKDGIEGPYTLVINTDRWINFLKEEAGHYPLEKRVEECLRGGKIITTPRIEDALVVSERGGDFKLILGQDLSIGYEDREKDAVRLFITETFTSRLSTRRPEGHHHHHH | soluble |
| MSLVRTALTIAGSDSGGGAGIEADLKTFTAFGVHGLVAITSVTAQNTQTVTAIHDIPPEVVSEQIRVVAEDIGVDAAKTGMLSNAEIIKAVAKTVKNYDFPLVVDPVMIAKSGAPLLREDAVDALIKYILPLATLVTPNRFEAEKLTGMEIRNVNDAKLAAKKIAEETGAKAVIVKGGHLEGKEAIDVLYHNGAYKLYRAPKVDGCTHGTGCSFSAAITANLAKGLSLEDAVSVAKEFITLGISTGHKIGHGHCPVNQSAWIEIPAEKWRIYEELTRAVREFERINPIKLIPEVGTNFVYALPFPYARTKEDVAGVKGRIVRVGNEVRAVGSVEFGASDHLARAILTFMRFYPKYRSAINVRYSEEIVELAKEQGFTVSFYDRREEPIEVKEKEGATIPWGIEVAVKRINKRPDVIYHLGDIGKEPMILIFGRNPREVLDKLRLLEGHHHHHH | soluble |
| MSLVTFSIRIISSDRIFLVAEVKALERVYVIGHKNPDTDSVCSAIGYAHFKNNVEKGKTFIPARSGDLTNESLFVLKYFGMNPPLHIETLEPTVEDLELKNPIFVTPDTSAYDVAMLMESRGIKNVPVVSKEKMIGVVTESNIARVYVRRLKIEPLVIHPVPFDQLVRILKAEVVCDYMKEKTVSGKVHIAVDALHVLLGKIEIGDVVIVGDNEPAQIALLEKGAKLMIVVNNAPVSNRVLEIAKEKNAAVLRVKFDAFSAAKLINLSLPVTLVMSKKFPTVTKKDTLEEVKEIVFTSKIRAAFVEDEKGRLCGVITRTDLLKDVRKKVILVDHNEITQAPEGVEKAEILEIIDHHRLGGLSTLNPVFFYNEPVGSTSTIVAEFFLKNGVKMEREIAGILLSGIVSDTLFFKLSTTTEKDRKMANFLADVAKLDLEKFAKKLLKEGMKIPEDVDPAELLKRDVKVYEMGEESFAVSQIMTSDFSTLLKEKERFMNTLKTLKGEFGVKHFFVLFTNPVEEASLLMMDGDQKLVEKAFNAEKKDGLFLLKGVMSRKKDFVPKIGEVLRREREGHHHHHH | soluble |
| MSLVTIKDVALKAGVSPSTVSRVIKGNKRISEATISKVKKVMEELNYFPNTAARTLITNQTYKIGLVLKGSEEPIRLNPFYINVLLGISETCNQHGYGTQTTVSNNMNDLMDEVYKMIKQRMVDAFILLYSKENDPIKQMLIDESMPFIVIGKPTSDIDHQFTHIDNDNILASENLTRHVIEQGVDELIFITEKGNFEVSKDRIQGFETVASQFNLDYQIIETSNEREVILNYMQNLHTRLKDPNIKQAIISLDAMLHLAILSVLYELNIEIPKDVMTATFNDSYLTEIASPPQTCIDIKPRMLGQQAGSAILNILKNKAQDVIELVIIDTELKIRKSTQREGHHHHHH | soluble |
| MSLVTVDQKPNLIRHLHDLSGVWQTDITYIQLTNHRWVYLATVLDPEKRKVLGYKIGDTMTAELATSALQMALDKHRKPLIIHSDMGSQYTSAEFNIKCQNYGLKHSYSLKGHPYDNGRMEAFHSILKREEVYLKAYQTLTEVQAAIGWYINFYNRNRISNVAEGHHHHHH | not soluble |

— the DeepSol protein solubility set
